{"source": "patent US20100093086A1", "about": "(RESEARCH FOUNDATION OF STATE UNIVERSITY OF NEW YORK, published 2010)", "key": {"[1]": {"biological_target": "T1, GST-MDMX containing full-length human MDMX (human, UniProt O15151 1-490)", "T1 construct": "mature; Expressed in E. coli and purified on glutathione-agarose; not shown: GST tag", "T1 sequence (looked up)": "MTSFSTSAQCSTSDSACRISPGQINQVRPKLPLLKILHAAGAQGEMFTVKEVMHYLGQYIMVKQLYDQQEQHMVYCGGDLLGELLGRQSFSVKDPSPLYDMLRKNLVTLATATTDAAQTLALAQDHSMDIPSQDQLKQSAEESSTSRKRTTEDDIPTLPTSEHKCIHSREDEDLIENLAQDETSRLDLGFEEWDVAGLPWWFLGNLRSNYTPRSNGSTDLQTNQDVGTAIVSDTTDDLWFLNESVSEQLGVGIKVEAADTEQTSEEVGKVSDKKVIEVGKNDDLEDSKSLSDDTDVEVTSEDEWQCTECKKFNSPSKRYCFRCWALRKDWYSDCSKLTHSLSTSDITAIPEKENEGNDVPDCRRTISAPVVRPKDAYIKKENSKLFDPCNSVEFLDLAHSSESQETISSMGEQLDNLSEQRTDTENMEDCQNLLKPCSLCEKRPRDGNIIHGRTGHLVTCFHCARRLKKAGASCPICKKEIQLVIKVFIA", "assay": "competition ELISA: peptide + GST-MDMX on plated His6-p53"}, "[2]": {"biological_target": "T2, GST-MDM2 containing full-length human MDM2 (human, UniProt Q00987 1-491)", "T2 construct": "mature; Expressed in E. coli and purified on glutathione-agarose; also called GST-HDM2; not shown: GST tag", "T2 sequence (Q00987 whole entry)": "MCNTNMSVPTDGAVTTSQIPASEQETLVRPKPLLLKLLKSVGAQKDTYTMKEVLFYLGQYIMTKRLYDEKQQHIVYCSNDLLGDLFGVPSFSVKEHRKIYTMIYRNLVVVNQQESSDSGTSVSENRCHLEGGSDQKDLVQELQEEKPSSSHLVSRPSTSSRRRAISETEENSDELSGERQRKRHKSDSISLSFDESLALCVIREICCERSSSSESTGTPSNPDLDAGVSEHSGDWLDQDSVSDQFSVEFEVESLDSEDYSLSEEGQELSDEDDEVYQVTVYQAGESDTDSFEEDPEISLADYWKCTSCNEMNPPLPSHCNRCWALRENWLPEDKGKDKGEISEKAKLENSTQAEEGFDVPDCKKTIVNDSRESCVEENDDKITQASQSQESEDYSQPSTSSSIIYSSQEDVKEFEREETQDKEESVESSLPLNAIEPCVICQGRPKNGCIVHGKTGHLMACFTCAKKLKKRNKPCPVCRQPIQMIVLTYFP", "assay": "competition ELISA: peptide + GST-MDM2 on plated His6-p53"}}, "note": "Bridges are numbered along the chain shown (N, C = ends). [ ]: non-standard residue; d: D form. code β = tetrazole-bearing lysine Lys(tetrazole), tetrazole half of pyrazoline cross-linker; L3 = not defined here"}
{"binder": "Ac-LTFXHYWXQLTS-NH2 (bridge 4-8 via L3; not fully specified (residues 4, 8); printed as LTFαHYWβQLTS, Stapled peptide)", "note": "[sPDI-4]", "values": [{"measurement": "IC50", "setting": "[1]", "result": 390, "unit": "nM"}, {"measurement": "IC50", "setting": "[2]", "result": 87, "unit": "nM"}]}
{"binder": "Ac-LTFXHYWXRLRS-NH2 (bridge 4-8 via L3; not fully specified (residues 4, 8); printed as LTFαHYWβRLRS, Stapled peptide)", "note": "[sPDI-9]", "values": [{"measurement": "IC50", "setting": "[1]", "result": 525, "unit": "nM"}, {"measurement": "IC50", "setting": "[2]", "result": 179, "unit": "nM"}]}
{"binder": "Ac-LTFXHYWXRLTS-NH2 (bridge 4-8 via L3; not fully specified (residues 4, 8); printed as LTFαHYWβRLTS, Stapled peptide)", "note": "[sPDI-8]", "values": [{"measurement": "IC50", "setting": "[1]", "result": 231, "unit": "nM"}, {"measurement": "IC50", "setting": "[2]", "result": 55, "unit": "nM"}]}
{"binder": "Ac-TSFXQYW[code β]RLRP-NH2 (bridge 4-8; not fully specified (residue 4, bridges); printed as TSFαQYWβRLRP; also: pyrazoline cross-linker L3 between α and β, Stapled peptide)", "note": "[sPMI-5]", "values": [{"measurement": "IC50", "setting": "[1]", "result": 298, "unit": "nM"}, {"measurement": "IC50", "setting": "[2]", "result": 597, "unit": "nM"}]}
{"binder": "Ac-TSFXQYWNLLXP-NH2 (bridge 4-11 via L3; not fully specified (residues 4, 11); printed as TSFαQYWNLLβP; also: pyrazoline cross-linker L3 between α and β, Stapled peptide)", "note": "[sPMI-3]", "values": [{"measurement": "IC50", "setting": "[1]", "result": 1490, "unit": "nM"}, {"measurement": "IC50", "setting": "[2]", "result": 23, "unit": "nM"}]}
{"binder": "Ac-TSFXRYWXRLSP-NH2 (bridge 4-8 via L3; not fully specified (residues 4, 8); printed as TSFαRYWβRLSP; also: pyrazoline cross-linker L3 between α and β, Stapled peptide)", "note": "[sPMI-4]", "values": [{"measurement": "IC50", "setting": "[1]", "result": 1840, "unit": "nM"}, {"measurement": "IC50", "setting": "[2]", "result": 1230, "unit": "nM"}]}
{"binder": "Ac-TSFAXYWNXLSP-NH2 (bridge 5-9 via L3; not fully specified (residues 5, 9); printed as TSFAαYWNβLSP; also: pyrazoline cross-linker L3 between α and β, Stapled peptide)", "note": "[sPMI-2]", "values": [{"measurement": "IC50", "setting": "[1]", "result": 3650, "unit": "nM"}, {"measurement": "IC50", "setting": "[2]", "result": 1080, "unit": "nM"}]}
